Test results as given in the supplement of paper PMC10724198.
± gives the standard deviation of the averaged measurements.

Test system: Saccharomyces cerevisiae
Test: protein stability index of tFT-peptide fusion (C-terminal peptide) (PSI (0-1 scale)); higher = more stable (slower turnover)
Details: genetic background: wild type; temperature: 30 C
Protocol: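 Multiplexed protein stability (MPS) profiling in S. cerevisiae. Random 12-aa peptides (tFT-X12 library) are fused to the C-terminus of a sfGFP-mCherry tandem fluorescent timer, after mCherry and a GGGS linker. Cells are FACS-sorted into 8 mCherry/sfGFP bins and deep-sequenced. The protein stability index (PSI) is the read-weighted bin average, scaled from 0 (unstable) to 1 (stable). Only peptides with >10 reads are reported; cells were grown at 30 °C in SC-His with glucose.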
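Note: PSI is a weighted mean of sequencing reads over stability bins, variants kept only with over 10 reads, mCherry proximal and sfGFP distal, peptide attached via GGGS linker.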

Sequence | protein stability index
GMDGRGWGGSVV | 0.726 ± 0.038
GMECFSGRGSEP | 0.735 ± 0.062
GMIGLAEVGIKC | 0.573 ± 0.0067
GMPTANMYLLLQ | 0.636 ± 0.017
GMYRHEGQSWDL | 0.7316 ± 0.0065
GNEKSSRLRSTT | 0.644 ± 0.12
GNFGFKVELGVR | 0.686 ± 0.031
GNIREEYGSTGI | 0.7226 ± 0.0032
GNKKENEKKEKK | 0.734 ± 0.022
GNPGRTAHILQL | 0.655 ± 0.03
GNTGRLERLKRQ | 0.734 ± 0.072
GNVRRVYMDYQG | 0.735 ± 0.039
GPCQSPSLVLTC | 0.555 ± 0.012
GPGSWKWKSRRV | 0.6634 ± 0.0034
GPGTAMCLWWWG | 0.692 ± 0.0085
GPGTSSVARPVS | 0.735 ± 0.07
GPGYVFVGSGGW | 0.692 ± 0.027
GPLDEPRIWSHR | 0.669 ± 0.0095
GPLEGGDGRWVG | 0.6852 ± 0.0015
GPLNQALLHCSV | 0.653 ± 0.021
GPPAGGTARSPM | 0.694 ± 0.029
GPRGGGGWSCES | 0.7366 ± 0.0032
GPRIVVLKDVII | 0.6403 ± 0.0063
GPSPFCTIRLKN | 0.655 ± 0.018
GPSREFGSNWII | 0.612 ± 0.034
GPSSVGWLFVVC | 0.553 ± 0.039

Sequence | protein stability index
GPSTVPGHGSDT | 0.689 ± 0.021
GPTFPPGLPSSL | 0.695 ± 0.09
GQEAGRERNNWQ | 0.694 ± 0.011
GQGEPRRVWGVV | 0.6746 ± 0.005
GQGGRAGRAADV | 0.6532 ± 0.001
GQIKIRAFPKSR | 0.662 ± 0.052
GQPYTHASSSIG | 0.685 ± 0.017
GQSVRELDSIKV | 0.652 ± 0.17
GQVSVGAVGSFE | 0.642 ± 0.097
GRACCILWGGPE | 0.694 ± 0.06
GRASGGGLGRGR | 0.593 ± 0.0086
GRDSECCSGGGG | 0.683 ± 0.018
GRENKWGKGRRE | 0.67 ± 0.035
GRFVVHEEVWFV | 0.6958 ± 0.0035
GRGACHSRGNQP | 0.668 ± 0.014
GRGGARARRRVL | 0.687 ± 0.071
GRGGEVALWRGV | 0.6479 ± 0.0014
GRGGGGVEPCFV | 0.669 ± 0.07
GRGICFGLPFLR | 0.683 ± 0.039
GRGLAEGRRITR | 0.638 ± 0.062
GRGLVDLLCGWV | 0.683 ± 0.074
GRGRCRGGVAVE | 0.751 ± 0.23
GRGSAGPARVST | 0.697 ± 0.024
GRGSGRCVVYWG | 0.651 ± 0.069
GRGVAPQGAVDA | 0.714 ± 0.027
GRKGARESSNEI | 0.667 ± 0.0075

Sequence | protein stability index
GRKNPPGTTDES | 0.725 ± 0.073
GRKSSITLLHTL | 0.58 ± 0.043
GRLFLHPSLLAS | 0.596 ± 0.062
GRLIGICECLSV | 0.622 ± 0.017
GRLIRYGSLPSP | 0.729 ± 0.032
GRLLVSVFEVVH | 0.614 ± 0.14
GRMGGWCVSGEV | 0.658 ± 0.017
GRNIIARLNNMT | 0.5748 ± 0.0047
GRNLFGLLWARP | 0.721 ± 0.0094
GRRERSGKGKER | 0.804 ± 0.14
GRRGWFESSIRR | 0.731 ± 0.014
GRRPRRLNKDVQ | 0.614 ± 0.025
GRRRARPISRGT | 0.681 ± 0.047
GRRRSRGRPIDL | 0.754 ± 0.03
GRRRTFGRSRGG | 0.651 ± 0.029
GRRVKTVNSLGL | 0.709 ± 0.061
GRRWKQHPGWVS | 0.573 ± 0.051
GRSGSVGGIRGR | 0.727 ± 0.04
GRSGWFGSEGVR | 0.803 ± 0.12
GRSHYFLSILRI | 0.5268 ± 0.0018
GRSIGVGGGGRG | 0.719 ± 0.059
GRSLGTPRYHPG | 0.713 ± 0.016
GRSRGEGVRRNH | 0.583 ± 0.042
GRSYCTLVFVWK | 0.582 ± 0.011
GRTDKKKFISGL | 0.608 ± 0.029
GRTENKKPSIKL | 0.711 ± 0.058

Sequence | protein stability index
GRVFDTNGIGLG | 0.694 ± 0.074
GRVIVCLSWGRL | 0.591 ± 0.019
GRVKEKCKRRYR | 0.657 ± 0.034
GRVLSEAWSEAF | 0.664 ± 0.054
GRVPSPDIGLPA | 0.672 ± 0.022
GRVSFFDYSRER | 0.704 ± 0.06
GRWRVEYWGFGG | 0.722 ± 0.025
GRYYVPGLAALV | 0.653 ± 0.0085
GSAACPVRGRFF | 0.639 ± 0.095
GSCFLLSLVSFI | 0.56199 ± 0.00047
GSDHIRQRNRME | 0.716 ± 0.025
GSDPPAPLRHPR | 0.709 ± 0.19
GSDVPCFLSLSY | 0.711 ± 0.02
GSDWGYDSGLKG | 0.765 ± 0.044
GSEVWGSPGFGG | 0.803 ± 0.0083
GSFPNSADQTFD | 0.659 ± 0.014
GSGGGVRRTIML | 0.739 ± 0.022
GSGGSGLLLVEW | 0.763 ± 0.02
GSGKHVGYIRVK | 0.656 ± 0.0082
GSGLWAGLWRAW | 0.727 ± 0.078
GSGRLGGDRVVG | 0.6578 ± 0.0029
GSGRSGSRFLPV | 0.6606 ± 0.0057
GSGVGACRGVKV | 0.685 ± 0.034
GSGYRPRVESWI | 0.681 ± 0.0079
GSKLTLRLSEHF | 0.686 ± 0.025
GSLGVWKGCGEG | 0.652 ± 0.018

Sequence | protein stability index
GSLHPAPDLRTR | 0.709 ± 0.036
GSLLVCGMVAGM | 0.5236 ± 0.0046
GSNCQVRMSIHR | 0.703 ± 0.011
GSNLQWNSKREE | 0.6165 ± 0.0016
GSNTTKRESQPH | 0.708 ± 0.067
GSPPSSLTADSA | 0.683 ± 0.017
GSPSRKGQSRTG | 0.698 ± 0.012
GSRALDSPSHCS | 0.74 ± 0.023
GSRARKARQPHG | 0.582 ± 0.2
GSRGGPVGEAAG | 0.665 ± 0.012
GSRIGTVSIRRI | 0.691 ± 0.072
GSRRVSFFLRFG | 0.647 ± 0.033
GSSAEGKALTES | 0.668 ± 0.053
GSTGRGEGSGVT | 0.664 ± 0.04
GSTLWGMAGGAR | 0.6985 ± 0.0056
GSVEGVLWSGVL | 0.711 ± 0.031
GSVFVFWESWRC | 0.6803 ± 0.0029
GSVRCGLRVRVG | 0.605 ± 0.047
GSWIKFVCRRAG | 0.731 ± 0.0095
GSWLGGRTLAGI | 0.707 ± 0.036
GTACIIVSGYGL | 0.643 ± 0.016
GTCWAGAMGGVG | 0.675 ± 0.042
GTDLKGFPFLTF | 0.688 ± 0.014
GTEKESRRKREQ | 0.698 ± 0.042
GTGERHIASEEK | 0.728 ± 0.013
GTGMHEGEPGEV | 0.686 ± 0.046

Sequence | protein stability index
GTGRGRAGARCK | 0.679 ± 0.018
GTRAGGRSKRER | 0.735 ± 0.11
GTRWPLVAPRER | 0.7254 ± 0.0045
GTVGRPNATGKV | 0.742 ± 0.088
GVAEFDGWFCLG | 0.7329 ± 0.0022
GVAWGCVSRVFG | 0.68 ± 0.045
GVCLGCWCWWVG | 0.604 ± 0.044
GVCVLGGWSGFW | 0.758 ± 0.062
GVDPVGVLFCGA | 0.656 ± 0.074
GVEGAEFVEAGT | 0.699 ± 0.041
GVEGCKRAGKLR | 0.651 ± 0.033
GVERLGGVLYVL | 0.6274 ± 0.0015
GVFWGYGLRDGV | 0.731 ± 0.073
GVGCGGACRPVG | 0.662 ± 0.09
GVGFGCGGVWME | 0.731 ± 0.012
GVGFGGGGVWME | 0.746 ± 0.031
GVGGGEAGVIGR | 0.769 ± 0.041
GVGGGGRLMCGV | 0.667 ± 0.04
GVGGGGVGLWLG | 0.656 ± 0.025
GVGSGEASDGCT | 0.626 ± 0.12
GVGWVWGGVWAG | 0.744 ± 0.045
GVGYRLGACPDR | 0.695 ± 0.053
GVIQARRSASSS | 0.689 ± 0.043
GVLEEVGPGLFL | 0.78 ± 0.14
GVLGPSFLSVAV | 0.584 ± 0.0082
